Data: the supplement of paper PMC10065799, “High-throughput profiling of sequence recognition by tyrosine kinases and SH2 domains using bacterial peptide display” (eLife, 2023)

What was measured:
[1] = tested on: c-Src; assay: phosphorylation enrichment, bacterial display (enrichment ratio); higher = better substrate or ligand; peptides without Tyr show the background
[2] = biological target: EPHB2 (UniProt P29323); assay: as above
[3] = biological target: EPHB1 (UniProt P54762); assay: as above
[4] = biological target: FGFR1 (UniProt P11362); assay: as above
[5] = tested on: AncSZ; assay: as above
[6] = biological target: FGFR3 (UniProt P22607); assay: as above
[7] = tested on: c-Abl (mouse); assay: as above
[8] = biological target: Jak2 (UniProt O60674); assay: as above
[9] = biological target: MERTK (UniProt Q12866); assay: as above
[10] = biological target: Fyn (UniProt P06241); assay: as above
[11] = biological target: Hck (UniProt P08631); assay: as above
[12] = biological target: Fes (UniProt P07332); assay: as above
[13] = tested on: Fer (mouse); assay: as above
[14] = biological target: SHP2-C SH2; assay: SH2 binding enrichment of the phosphorylated peptide, bacterial display (enrichment ratio); higher = better substrate or ligand; peptides without Tyr show the background
[15] = biological target: c-Src SH2; assay: as above
[16] = biological target: Grb2 SH2 (UniProt P62993); assay: as above
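Wherever SH2 binding enrichment of the phosphorylated peptide, bacterial display is given: peptide library displayed on the E. coli surface as eCPX fusions, selected cells deep-sequenced, score is each peptide's frequency after selection divided by its frequency in the input.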
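Wherever phosphorylation enrichment, bacterial display is given: 11-residue human phosphosite peptides and single-mutation variants displayed on the E. coli surface, counted by deep sequencing, each peptide's frequency after selection divided by its frequency in the unselected input library; frequency after pTyr selection over input frequency; kinase dosed for 20-30% of maximal phosphorylation in three min.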

Jak2, sequence (O60674 whole entry, looked up): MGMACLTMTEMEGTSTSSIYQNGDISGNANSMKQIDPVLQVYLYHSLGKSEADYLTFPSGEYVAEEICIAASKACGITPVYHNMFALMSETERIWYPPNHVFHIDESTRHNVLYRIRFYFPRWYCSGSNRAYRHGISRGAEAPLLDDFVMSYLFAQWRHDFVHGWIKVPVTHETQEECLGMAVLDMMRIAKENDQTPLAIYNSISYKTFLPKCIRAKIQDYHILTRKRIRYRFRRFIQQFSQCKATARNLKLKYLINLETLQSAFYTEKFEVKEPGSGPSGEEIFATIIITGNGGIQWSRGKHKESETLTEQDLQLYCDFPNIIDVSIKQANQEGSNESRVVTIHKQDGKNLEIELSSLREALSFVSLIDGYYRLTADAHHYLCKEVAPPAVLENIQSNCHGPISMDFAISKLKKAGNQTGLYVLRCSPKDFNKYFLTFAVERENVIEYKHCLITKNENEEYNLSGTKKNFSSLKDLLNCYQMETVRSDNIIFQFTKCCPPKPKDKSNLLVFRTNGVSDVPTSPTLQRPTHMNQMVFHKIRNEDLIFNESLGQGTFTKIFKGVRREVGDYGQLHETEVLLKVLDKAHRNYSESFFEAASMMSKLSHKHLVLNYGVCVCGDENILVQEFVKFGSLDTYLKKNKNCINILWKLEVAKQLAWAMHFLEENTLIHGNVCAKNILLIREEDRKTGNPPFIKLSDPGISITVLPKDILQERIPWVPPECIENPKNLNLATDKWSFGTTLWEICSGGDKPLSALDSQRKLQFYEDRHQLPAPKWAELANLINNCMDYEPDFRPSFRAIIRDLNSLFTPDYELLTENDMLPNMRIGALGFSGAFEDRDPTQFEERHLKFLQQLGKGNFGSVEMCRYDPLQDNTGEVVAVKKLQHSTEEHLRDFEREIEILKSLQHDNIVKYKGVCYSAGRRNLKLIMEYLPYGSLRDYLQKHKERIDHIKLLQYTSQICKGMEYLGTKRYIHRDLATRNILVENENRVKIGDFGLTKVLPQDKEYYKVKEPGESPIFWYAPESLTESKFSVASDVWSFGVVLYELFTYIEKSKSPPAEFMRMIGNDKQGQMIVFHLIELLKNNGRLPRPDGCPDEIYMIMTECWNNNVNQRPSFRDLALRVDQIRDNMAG
FGFR1, sequence (P11362 whole entry, looked up): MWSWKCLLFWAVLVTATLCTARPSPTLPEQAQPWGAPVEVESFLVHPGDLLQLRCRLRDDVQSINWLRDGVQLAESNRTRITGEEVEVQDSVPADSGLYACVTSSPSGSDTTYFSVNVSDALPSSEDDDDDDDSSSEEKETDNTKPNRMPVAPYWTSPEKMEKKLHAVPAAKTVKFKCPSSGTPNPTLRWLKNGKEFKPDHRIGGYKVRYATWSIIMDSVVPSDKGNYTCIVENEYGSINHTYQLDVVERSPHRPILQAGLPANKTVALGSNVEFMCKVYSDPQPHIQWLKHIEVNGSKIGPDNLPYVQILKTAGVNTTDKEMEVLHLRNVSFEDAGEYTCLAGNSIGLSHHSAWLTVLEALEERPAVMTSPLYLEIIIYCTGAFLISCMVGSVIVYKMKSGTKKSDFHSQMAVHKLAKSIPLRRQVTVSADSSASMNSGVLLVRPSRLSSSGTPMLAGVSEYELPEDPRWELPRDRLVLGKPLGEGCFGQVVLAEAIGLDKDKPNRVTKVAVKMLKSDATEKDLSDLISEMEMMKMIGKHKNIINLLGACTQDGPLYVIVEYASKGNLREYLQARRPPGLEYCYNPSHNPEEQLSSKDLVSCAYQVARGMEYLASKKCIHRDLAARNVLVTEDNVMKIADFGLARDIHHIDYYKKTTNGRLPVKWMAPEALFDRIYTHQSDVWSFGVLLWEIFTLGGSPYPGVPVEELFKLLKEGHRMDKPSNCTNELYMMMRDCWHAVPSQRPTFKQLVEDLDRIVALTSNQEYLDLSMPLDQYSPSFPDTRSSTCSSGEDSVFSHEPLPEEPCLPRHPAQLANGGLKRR
Fyn, sequence (P06241 whole entry, looked up): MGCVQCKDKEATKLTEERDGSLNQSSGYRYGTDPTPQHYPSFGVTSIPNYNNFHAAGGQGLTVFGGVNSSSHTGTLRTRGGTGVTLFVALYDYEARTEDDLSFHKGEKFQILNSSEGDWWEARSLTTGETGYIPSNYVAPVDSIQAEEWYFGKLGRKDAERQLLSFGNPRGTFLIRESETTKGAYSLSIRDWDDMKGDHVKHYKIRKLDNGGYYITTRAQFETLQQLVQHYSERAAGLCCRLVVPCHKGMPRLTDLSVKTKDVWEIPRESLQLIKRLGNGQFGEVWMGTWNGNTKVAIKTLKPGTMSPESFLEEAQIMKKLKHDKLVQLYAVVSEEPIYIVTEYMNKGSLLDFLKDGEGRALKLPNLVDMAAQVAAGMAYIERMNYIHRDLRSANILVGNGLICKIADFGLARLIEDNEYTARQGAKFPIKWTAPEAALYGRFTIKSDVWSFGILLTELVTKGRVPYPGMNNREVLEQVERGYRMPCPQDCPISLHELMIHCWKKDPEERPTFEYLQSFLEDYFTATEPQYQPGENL
FGFR3, sequence (P22607 whole entry, looked up): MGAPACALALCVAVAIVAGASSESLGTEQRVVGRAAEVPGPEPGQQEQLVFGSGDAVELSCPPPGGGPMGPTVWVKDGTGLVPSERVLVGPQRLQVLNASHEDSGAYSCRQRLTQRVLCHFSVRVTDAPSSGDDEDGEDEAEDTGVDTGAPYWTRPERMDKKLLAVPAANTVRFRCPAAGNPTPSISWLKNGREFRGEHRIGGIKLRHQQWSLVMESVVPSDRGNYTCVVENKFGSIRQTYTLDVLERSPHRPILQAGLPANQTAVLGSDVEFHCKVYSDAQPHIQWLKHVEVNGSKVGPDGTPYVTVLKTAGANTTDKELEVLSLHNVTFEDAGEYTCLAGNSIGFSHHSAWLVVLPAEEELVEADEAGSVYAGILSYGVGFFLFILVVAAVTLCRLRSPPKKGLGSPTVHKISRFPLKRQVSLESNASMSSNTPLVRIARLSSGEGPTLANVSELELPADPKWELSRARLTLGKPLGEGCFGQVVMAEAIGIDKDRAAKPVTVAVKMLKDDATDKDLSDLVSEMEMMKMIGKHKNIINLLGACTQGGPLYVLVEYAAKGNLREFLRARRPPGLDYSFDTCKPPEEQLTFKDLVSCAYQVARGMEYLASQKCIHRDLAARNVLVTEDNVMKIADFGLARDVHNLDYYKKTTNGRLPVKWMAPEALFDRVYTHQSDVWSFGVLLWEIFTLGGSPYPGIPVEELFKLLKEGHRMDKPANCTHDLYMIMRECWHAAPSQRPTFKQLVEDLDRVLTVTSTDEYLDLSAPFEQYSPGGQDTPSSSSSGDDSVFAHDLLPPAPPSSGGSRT
Fes, sequence (P07332 whole entry, looked up): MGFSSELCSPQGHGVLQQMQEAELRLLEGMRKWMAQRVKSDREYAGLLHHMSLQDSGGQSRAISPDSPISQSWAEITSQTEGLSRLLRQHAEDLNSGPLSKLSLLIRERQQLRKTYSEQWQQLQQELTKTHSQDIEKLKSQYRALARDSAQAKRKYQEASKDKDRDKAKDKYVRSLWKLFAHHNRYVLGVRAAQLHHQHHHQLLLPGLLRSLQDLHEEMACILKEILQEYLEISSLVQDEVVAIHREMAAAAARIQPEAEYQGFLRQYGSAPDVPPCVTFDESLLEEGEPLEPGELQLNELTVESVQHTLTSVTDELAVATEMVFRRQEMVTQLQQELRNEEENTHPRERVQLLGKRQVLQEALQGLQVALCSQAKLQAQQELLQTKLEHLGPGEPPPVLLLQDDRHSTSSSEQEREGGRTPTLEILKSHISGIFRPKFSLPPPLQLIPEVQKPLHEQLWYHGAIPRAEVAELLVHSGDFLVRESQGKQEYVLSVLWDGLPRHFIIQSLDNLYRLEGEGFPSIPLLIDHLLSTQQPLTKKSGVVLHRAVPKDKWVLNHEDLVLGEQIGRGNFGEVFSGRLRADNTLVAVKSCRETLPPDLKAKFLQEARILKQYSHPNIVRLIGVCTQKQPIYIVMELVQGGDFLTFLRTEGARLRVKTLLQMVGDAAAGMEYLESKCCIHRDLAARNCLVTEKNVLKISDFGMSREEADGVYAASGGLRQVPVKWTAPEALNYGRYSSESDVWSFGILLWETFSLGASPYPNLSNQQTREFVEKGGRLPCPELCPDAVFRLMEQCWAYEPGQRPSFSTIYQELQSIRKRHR
EPHB1, sequence (P54762 whole entry, looked up): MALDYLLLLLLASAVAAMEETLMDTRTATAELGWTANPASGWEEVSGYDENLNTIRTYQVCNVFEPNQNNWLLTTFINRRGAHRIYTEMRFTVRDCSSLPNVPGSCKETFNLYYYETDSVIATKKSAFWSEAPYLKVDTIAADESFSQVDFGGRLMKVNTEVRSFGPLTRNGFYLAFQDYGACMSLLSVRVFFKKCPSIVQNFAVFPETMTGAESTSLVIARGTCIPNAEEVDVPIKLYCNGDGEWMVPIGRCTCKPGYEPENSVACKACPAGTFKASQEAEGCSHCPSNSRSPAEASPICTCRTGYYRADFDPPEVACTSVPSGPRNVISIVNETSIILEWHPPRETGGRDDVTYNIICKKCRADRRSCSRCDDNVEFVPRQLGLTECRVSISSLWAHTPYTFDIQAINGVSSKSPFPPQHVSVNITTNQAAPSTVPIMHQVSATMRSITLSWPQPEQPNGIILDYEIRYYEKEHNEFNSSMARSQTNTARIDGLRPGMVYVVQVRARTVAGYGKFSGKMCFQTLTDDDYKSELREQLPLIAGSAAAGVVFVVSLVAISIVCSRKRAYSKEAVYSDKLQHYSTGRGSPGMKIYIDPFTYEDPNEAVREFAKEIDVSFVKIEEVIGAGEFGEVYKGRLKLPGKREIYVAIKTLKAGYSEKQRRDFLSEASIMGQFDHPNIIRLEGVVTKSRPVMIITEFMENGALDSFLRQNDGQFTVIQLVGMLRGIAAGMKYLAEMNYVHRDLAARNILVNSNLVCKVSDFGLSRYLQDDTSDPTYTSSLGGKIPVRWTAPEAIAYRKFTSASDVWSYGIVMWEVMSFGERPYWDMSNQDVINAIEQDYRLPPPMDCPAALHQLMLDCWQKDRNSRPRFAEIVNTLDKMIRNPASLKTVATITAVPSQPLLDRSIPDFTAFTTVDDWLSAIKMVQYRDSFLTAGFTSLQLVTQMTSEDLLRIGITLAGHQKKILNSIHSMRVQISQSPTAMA

Sequence | phosphorylation enrichment [1] | phosphorylation enrichment [2] | phosphorylation enrichment [3] | phosphorylation enrichment [4] | phosphorylation enrichment [5] | phosphorylation enrichment [6] | phosphorylation enrichment [7] | phosphorylation enrichment [8] | phosphorylation enrichment [9] | phosphorylation enrichment [10] | phosphorylation enrichment [11] | phosphorylation enrichment [12] | phosphorylation enrichment [13] | SH2 binding enrichment [14] | SH2 binding enrichment [15] | SH2 binding enrichment [16]
MSFDRYMAICH [OR2A5_Y123_YF] | 0.497 | 0.669 | 0.868 | 0.567 | 0.897 | 0.68 | 0.69 | 0.878 | 0.498 | 0.494 | 0.527 | 1.08 | 0.557 | 0.688 | 0.859 | 0.829
ESKAGYRAPRS [CLDN7_Y195_V197A] | 0.349 | 0.415 | 0.35 | 0.425 | 0.536 | 0.483 | 0.402 | 0.593 | 0.34 | 0.415 | 0.404 | 0.519 | 0.339 | 0.74 | 0.542 | 1.04
VPANRYDLLCL [FARSB_Y72] | 0.487 | 0.654 | 0.58 | 0.493 | 0.808 | 0.725 | 0.773 | 0.873 | 0.514 | 0.469 | 0.458 | 0.985 | 0.486 | 0.907 | 3.03 | 0.831
TNQVICLNPPI [DYNC1H1_Y970_Y970C] | 0.446 | 0.54 | 0.589 | 0.53 | 0.842 | 0.62 | 1.17 | 0.892 | 0.405 | 0.459 | 0.495 | 0.921 | 0.458 | 0.619 | 0.477 | 0.788
RETPLYKACER [ASB2_Y162] | 0.568 | 0.573 | 0.441 | 0.457 | 0.777 | 0.759 | 1.02 | 0.632 | 0.527 | 0.457 | 0.577 | 1.13 | 0.504 | 1.27 | 0.855 | 1.42
RHLREYQDLLI [DES_Y388_N393I] | 0.482 | 0.744 | 1.02 | 0.899 | 0.912 | 0.813 | 0.708 | 0.74 | 0.482 | 0.655 | 0.592 | 1.21 | 0.636 | 0.851 | 1.79 | 1.59
SLTGAYTSGIP [POM121C_Y378] | 0.326 | 0.393 | 0.299 | 0.494 | 0.443 | 0.408 | 0.52 | 0.44 | 0.349 | 0.376 | 0.357 | 0.533 | 0.306 | 0.718 | 0.448 | 0.828
EEEFFYEKAIL [BCCIP_Y257] | 0.89 | 0.648 | 0.622 | 0.671 | 1.93 | 0.895 | 1.1 | 1.34 | 0.847 | 0.633 | 0.811 | 1.55 | 5.34 | 0.685 | 0.655 | 0.981
IPQEEYKATGL | 0.535 | 0.635 | 0.706 | 0.527 | 0.84 | 0.677 | 0.776 | 0.93 | 0.492 | 0.497 | 0.631 | 1.18 | 0.531 | 0.777 | 0.564 | 0.763
EVNQDYGLDPK [FH_Y110] | 0.466 | 0.546 | 0.631 | 0.572 | 1.31 | 0.837 | 0.765 | 1.17 | 0.443 | 0.604 | 0.596 | 1.29 | 0.519 | 0.581 | 0.508 | 0.807
TYACSYTPVKA [FLNB_Y708] | 2.4 | 0.868 | 0.567 | 0.877 | 0.991 | 0.627 | 1.78 | 1.24 | 3.02 | 1.25 | 1.32 | 1.06 | 0.78 | 7.09 | 1.54 | 0.85
RTVDVYFGPQM [KIRREL3_Y332_R336Q] | 1.73 | 0.677 | 1.04 | 0.824 | 1.51 | 0.919 | 1.53 | 1.25 | 0.577 | 1.45 | 1.73 | 1.15 | 0.71 | 0.453 | 0.304 | 0.838
RDWSHYFKIIE [KRT18_Y129] | 0.705 | 1.08 | 0.824 | 0.687 | 1.46 | 0.997 | 0.823 | 1.35 | 0.296 | 0.793 | 0.57 | 1.72 | 0.412 | 0.436 | 0.479 | 0.776
EAMSDYKKQLR [SPATA18_Y229] | 0.452 | 0.413 | 0.418 | 0.378 | 0.594 | 0.605 | 0.442 | 0.563 | 0.393 | 0.316 | 0.383 | 0.651 | 0.405 | 1.05 | 0.438 | 0.852
SARFRYLVAEK [LDHB_Y173_M175V] | 0.449 | 0.486 | 0.351 | 0.424 | 0.698 | 0.425 | 0.569 | 0.607 | 0.327 | 0.415 | 0.458 | 0.635 | 0.447 | 0.615 | 0.516 | 0.811
GESSGYLRLAF [MEP1A_Y481_R476G] | 0.459 | 0.49 | 0.536 | 0.559 | 0.964 | 0.696 | 0.752 | 1.02 | 0.464 | 0.474 | 0.451 | 1.02 | 0.507 | 4.31 | 0.602 | 0.919
IGEGTYGTVFK [CDK5_Y15] | 6.34 | 2.08 | 0.989 | 0.515 | 0.707 | 0.58 | 0.676 | 0.788 | 0.825 | 10.4 | 9.06 | 0.793 | 1.41 | 0.703 | 0.434 | 0.699

Sequence | phosphorylation enrichment [1] | phosphorylation enrichment [2] | phosphorylation enrichment [3] | phosphorylation enrichment [4] | phosphorylation enrichment [5] | phosphorylation enrichment [6] | phosphorylation enrichment [7] | phosphorylation enrichment [8] | phosphorylation enrichment [9] | phosphorylation enrichment [10] | phosphorylation enrichment [11] | phosphorylation enrichment [12] | phosphorylation enrichment [13] | SH2 binding enrichment [14] | SH2 binding enrichment [15] | SH2 binding enrichment [16]
RHLREYPDLLN [DES_Y388_Q389P] | 0.453 | 0.463 | 0.375 | 0.584 | 0.695 | 0.71 | 0.404 | 0.73 | 0.569 | 0.389 | 0.53 | 0.822 | 0.352 | 0.878 | 1.09 | 1.25
ISKILYHIIKG [CDH17_Y489_S484I] | 0.551 | 0.535 | 0.679 | 0.651 | 0.779 | 0.601 | 0.601 | 0.783 | 1.11 | 0.449 | 0.508 | 0.823 | 0.379 | 2 | 3.02 | 1.75
LLTKVYVVEGS [ZMPSTE24_Y253_P248L] | 0.657 | 0.994 | 0.816 | 0.9 | 1.65 | 1.23 | 0.773 | 1.23 | 0.668 | 0.586 | 0.795 | 2 | 0.819 | 0.66 | 0.456 | 0.795
KIITDYYVDMK [MPP4_Y566_V562I] | 0.517 | 0.718 | 1.56 | 4.12 | 1.09 | 2.6 | 0.677 | 1.22 | 0.547 | 0.55 | 0.449 | 0.941 | 0.482 | 0.82 | 3.04 | 0.861
MSYDRYMAVCH [OR2A5_Y123_I126V] | 0.464 | 0.751 | 0.879 | 0.438 | 0.867 | 0.57 | 0.509 | 0.891 | 0.44 | 0.475 | 0.507 | 0.878 | 0.595 | 0.687 | 0.993 | 0.779
GGMAKYTRLHN [EHHADH_Y4_E3K] | 0.334 | 0.458 | 0.351 | 0.39 | 0.492 | 0.398 | 0.491 | 0.641 | 0.407 | 0.318 | 0.343 | 0.542 | 0.343 | 1.42 | 1.43 | 1.12
VARAVYQAVLS [SMG1_Y549_H546R] | 1.36 | 0.567 | 0.526 | 0.468 | 0.999 | 0.585 | 0.75 | 0.722 | 0.758 | 1.07 | 2.26 | 0.97 | 1.33 | 0.834 | 1 | 0.708
ERNTVYSSSGV [NELL2_Y350] | 0.666 | 0.379 | 0.502 | 0.372 | 0.539 | 0.679 | 0.521 | 0.405 | 0.39 | 0.544 | 0.768 | 0.474 | 0.359 | 0.741 | 0.485 | 0.952
IDAVCYYRMEN [NPHS2_Y194_I192V] | 2.48 | 0.745 | 0.865 | 3.5 | 1.96 | 3.39 | 1.22 | 4.36 | 0.845 | 0.888 | 0.862 | 1.51 | 0.729 | 0.49 | 0.421 | 0.661
YSGLAYTMERS [GLUD1_Y512_H507Y] | 1.43 | 0.355 | 0.386 | 0.463 | 0.765 | 0.558 | 0.607 | 0.873 | 0.849 | 1.09 | 1.64 | 0.833 | 0.398 | 1.48 | 1.59 | 0.682
GQRDLYSGLNE [CD3E_Y199_Q204E] | 5.28 | 1.3 | 1.12 | 0.555 | 1.23 | 0.653 | 0.566 | 0.716 | 2.58 | 4.4 | 9.08 | 0.89 | 1.94 | 0.64 | 0.724 | 0.878
DIRAQYDELAQ [KRT18_Y256_R261Q] | 0.473 | 0.574 | 0.546 | 0.49 | 1.08 | 0.753 | 0.614 | 0.864 | 0.582 | 0.576 | 0.574 | 1.06 | 0.45 | 0.687 | 7.43 | 0.633
FGSSSYRGAGG [RPA2_Y14_G15R_YF] | 0.659 | 0.551 | 0.431 | 0.551 | 0.64 | 0.584 | 0.998 | 0.692 | 0.568 | 0.494 | 0.523 | 0.876 | 0.409 | 0.548 | 0.353 | 1.01
GPIFRYDLGGA [CYP11B1_Y81] | 0.394 | 0.431 | 0.478 | 0.432 | 0.777 | 0.433 | 0.497 | 0.568 | 0.345 | 0.45 | 0.357 | 0.822 | 0.466 | 0.859 | 0.518 | 0.97
RRNNSYTCYTA [SLC20A2_Y386] | 0.865 | 0.678 | 1.81 | 0.645 | 1.04 | 0.536 | 1.02 | 1.24 | 0.665 | 0.73 | 0.523 | 1.2 | 0.615 | 1 | 0.526 | 0.915
KVASVYEALGF [NT5C_Y65_P68L] | 6.25 | 4.25 | 8.22 | 0.607 | 0.88 | 0.574 | 0.697 | 0.595 | 7.59 | 10.3 | 8.84 | 0.989 | 4.62 | 0.667 | 0.613 | 0.787
